{"source": "IntAct's records for PubMed 16488887", "parents": {"B1": {"name": "Prospero homeobox protein 1 (Homo sapiens), Q92786 (parent)", "chain": "MPDHDSTALLSRQTKRRRVDIGVKRTVGTASAFFAKARATFFSAMNPQGSEQDVEYSVVQHADGEKSNVLRKLLKRANSYEDAMMPFPGATIISQLLKNNMNKNGGTEPSFQASGLSSTGSEVHQEDICSNSSRDSPPECLSPFGRPTMSQFDMDRLCDEHLRAKRARVENIIRGMSHSPSVALRGNENEREMAPQSVSPRESYRENKRKQKLPQQQQQSFQQLVSARKEQKREERRQLKQQLEDMQKQLRQLQEKFYQIYDSTDSENDEDGNLSEDSMRSEILDARAQDSVGRSDNEMCELDPGQFIDRARALIREQEMAENKPKREGNNKERDHGPNSLQPEGKHLAETLKQELNTAMSQVVDTVVKVFSAKPSRQVPQVFPPLQIPQARFAVNGENHNFHTANQRLQCFGDVIIPNPLDTFGNVQMASSTDQTEALPLVVRKNSSDQSASGPAAGGHHQPLHQSPLSATTGFTTSTFRHPFPLPLMAYPFQSPLGAPSGSFSGKDRASPESLDLTRDTTSLRTKMSSHHLSHHPCSPAHPPSTAEGLSLSLIKSECGDLQDMSEISPYSGSAMQEGLSPNHLKKAKLMFFYTRYPSSNMLKTYFSDVKFNRCITSQLIKWFSNFREFYYIQMEKYARQAINDGVTSTEELSITRDCELYRALNMHYNKANDFEVPERFLEVAQITLREFFNAIIAGKDVDPSWKKAIYKVICKLDSEVPEIFKSPNCLQELLHE", "partner": "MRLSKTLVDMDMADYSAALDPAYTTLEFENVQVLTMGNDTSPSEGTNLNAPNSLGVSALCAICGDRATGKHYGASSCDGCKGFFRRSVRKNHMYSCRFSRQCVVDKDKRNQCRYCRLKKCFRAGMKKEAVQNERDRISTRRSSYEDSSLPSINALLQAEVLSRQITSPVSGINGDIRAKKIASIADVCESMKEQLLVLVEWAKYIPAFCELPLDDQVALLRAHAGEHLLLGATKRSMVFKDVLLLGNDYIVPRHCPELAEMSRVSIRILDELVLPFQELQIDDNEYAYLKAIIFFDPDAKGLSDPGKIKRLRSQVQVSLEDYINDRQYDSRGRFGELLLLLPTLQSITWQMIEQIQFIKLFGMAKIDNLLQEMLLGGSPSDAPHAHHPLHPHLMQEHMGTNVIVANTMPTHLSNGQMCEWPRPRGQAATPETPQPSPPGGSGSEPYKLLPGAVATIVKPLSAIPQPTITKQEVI"}}}
{"variants_of": "B1", "settings": "with hnf4a_human HNF4A"}
{"variant": "L70A;L73A", "effect of a mutation on the interaction": "disrupting interaction"}
